We go through 22 sequences from the supplement of paper PMC9170038.

In the series the test system is K4 kissing-loop RNA reporter. The experiment in a line: apparent KD of K4 kissing-loop reporter; higher = weaker reporter binding. Particulars: Eterna round: R107. On the procedure:
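RNA-MaP round R107: designed RNA switches with theophylline, tryptophan, arginine or FMN aptamers are transcribed on-chip within common flanks. They are titrated with a labelled K4 kissing-loop RNA reporter in RNA-MaP buffer (100 mM Tris pH 7.5, 80 mM KCl, 4 mM MgCl2), without ligand or with the indicated ligand. Median apparent KD per design.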

[1] abbreviates: input ligand: theophylline 20 uM.
Where [2] appears, read: input ligand: tryptophan 2.4 mM.
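Further: bound reporter read as fluorescence of individual clusters on recovered sequencing chips by microscopy, with normalized cluster intensities fitted with a binding model.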

“CGGCGCGGCGCGGCCGCCACUGCGCCUGGGCGCUCGCCGAGUGAUGUUCGUCGGCGGUCGGGUGGCAGGACCGGGUGCCGGCCCG [BDazzled - #20 SS Tryptophan B]”: the “apparent KD of K4 kissing-loop reporter” value is 295 nM (input ligand: FMN 200 uM); 227 nM (input ligand: arginine 13.2 mM); 217 nM (input ligand: none); 169 nM under setting [1]; 141 nM under setting [2].
The corresponding values for “CGGCGUGCCUUAUCCUCAUCUCUGACUCAACGAGGACCGGUACGGCCGCCACUCGGAAGAGGCAGUGAUGUUGCCUACGCCGGUG [Oronat]” are 76.3 nM, 82.7 nM, 77.3 nM, 82.3 nM and 81.4 nM.
On the same counts, the results for “CGGCUUAGUAGCGCGAGUUGACGUGCCAUCCGAGGACCGGUACGGCCGCCACUCGUGAUCUGUUAAAGUGAUGUUUUAAUGCCAU” are 722 nM, 602 nM, 712 nM, 711 nM and 639 nM.
As for “CGGGUACGUCAAGGAUAUAGGCAUGACGUAGUGCAGUGAUGUUGCUCGAGUCUCUUCAACUGAGGACUAGAAGGUGAUCGUAACA [theeternabot_sameState_KL_FMN_B_15]”, the “apparent KD of K4 kissing-loop reporter” value is 491 nM (input ligand: FMN 200 uM); 351 nM (input ligand: arginine 13.2 mM); 631 nM (input ligand: none); 644 nM under setting [1]; 344 nM under setting [2].
“CGUAGCAGACGAAGGAGCGGCUACCUGAAUCAGGGUGAUGCCUGAGUGAUGUUCAGGUAAAGCCAGGUAGGUCGCGUCUGCUACG [Arg B Ex t9a]”: the “apparent KD of K4 kissing-loop reporter” value is 201 nM (input ligand: FMN 200 uM); 203 nM (input ligand: arginine 13.2 mM); 232 nM (input ligand: none); 235 nM under setting [1]; 210 nM under setting [2].
For “CGUCACACUUGAUGGUUAUCCAAUGAUGAUACCAGCCGUCGAGAUGGCCCUUGGCAGCAUGUGGUACAGUGAUGUUGUACAUUGG [theeternabot_sameState_KL_Theo_A_30]”, the “apparent KD of K4 kissing-loop reporter” value is 392 nM (input ligand: FMN 200 uM); 244 nM (input ligand: arginine 13.2 mM); 383 nM (input ligand: none); 352 nM under setting [1]; 258 nM under setting [2].
“CGUCUAUAGCAGGAUACCAGUACCCAUUAUGUACGUUUAUAGUAGAGUGAUGUUCUAAAGUACCCUUGGCAGCUUCCUGUGACCC [#24 K4 Theophylline B Exclusion]”: the “apparent KD of K4 kissing-loop reporter” value (input ligand: FMN 200 uM) amounted to 179 nM; the “apparent KD of K4 kissing-loop reporter” value (input ligand: arginine 13.2 mM) stood at 189 nM; the “apparent KD of K4 kissing-loop reporter” value (input ligand: none) was found to be 189 nM; the “apparent KD of K4 kissing-loop reporter” value under setting [1] was found to be 206 nM; the “apparent KD of K4 kissing-loop reporter” value under setting [2] stood at 163 nM.
Turning to “CGUGAAGACCAGAGGUGAUGUAUAGUAUCGCGAGGACCGGUACGGCCGCCACUCGUGAAGAGAAAGGAGUGAUGUUCCGUAAUGG [C12]”, the “apparent KD of K4 kissing-loop reporter” value (input ligand: FMN 200 uM) came to 246 nM; the “apparent KD of K4 kissing-loop reporter” value (input ligand: arginine 13.2 mM) turned out to be 239 nM; the “apparent KD of K4 kissing-loop reporter” value (input ligand: none) is 312 nM; the “apparent KD of K4 kissing-loop reporter” value under setting [1] amounted to 326 nM; the “apparent KD of K4 kissing-loop reporter” value under setting [2] came out at 107 nM.
The corresponding values for “CGUGAUGUAUGGCGGUUUGUCACUUAGGAUCAGGAUAUAUAAACAAAUAGAAGGGAUGGCGGAGUGAUGUUCCGCCGGCCGCCAU [FMN A Exl V8]” are 173 nM, 128 nM, 161 nM, 150 nM and 148 nM.
On to “CGUUCCUCUGUCGAUACCAGCUUCAGUUGGCGGCCAGUGAUGUUGGUAUCGCCGAUGCCAAGCCCUUGGCAGCGACAGGAGACCC [Usleanza]”, for which the “apparent KD of K4 kissing-loop reporter” value is, setting by setting: (input ligand: FMN 200 uM) 155 nM; (input ligand: arginine 13.2 mM) 165 nM; (input ligand: none) 211 nM; under setting [1], 95 nM; under setting [2], 163 nM.
As for “CGUUUAUAGCAGGAUACCAGUACCCAUUAUGUACGUUUAUAGUAGAGUGAUGUUCUAAAGUACCCUUGGCAGCUUCCUGUGACCC [ExTheophylB.Aa]”, the “apparent KD of K4 kissing-loop reporter” value is 166 nM (input ligand: FMN 200 uM); 168 nM (input ligand: arginine 13.2 mM); 181 nM (input ligand: none); 194 nM under setting [1]; 145 nM under setting [2].
On the same counts, the results for “CUAUGGAAACAUAGUGAUCGGGAAACCGAUACCAGUAUGGAAACAUACCCUUGGCAGCGGAAUGAUCAAACGGAGUGAUGUUCCG [Theophylline A K4 21]” are 459 nM, 318 nM, 648 nM, 278 nM and 288 nM.
On to “CUCGAGUGAUGUUCCUUUAUUUAUACAGAUACCAGUGAAUUUUAACACCCUUGGCAGCUGGUUGUAUCUUUGUUUUUUACACAUG [JR_Nu_ExcTheophyA_Sub025]”, for which the “apparent KD of K4 kissing-loop reporter” value by setting is: (input ligand: FMN 200 uM) 204 nM; (input ligand: arginine 13.2 mM) 128 nM; (input ligand: none) 205 nM; under setting [1], 270 nM; under setting [2], 155 nM.
Regarding “CUGACGCUGAUACGGUGGCCGCUGGUCGUGCGAGGACCGGUACGGCCGCCACUCGCAUGAGUGAUGUUCAUGUGUCGUCGUCGUC [#07 K4 Tryptophan A Exclusion]”, the “apparent KD of K4 kissing-loop reporter” value by setting is: (input ligand: FMN 200 uM) 122 nM; (input ligand: arginine 13.2 mM) 108 nM; (input ligand: none) 113 nM; under setting [1], 105 nM; under setting [2], 123 nM.
For “CUGGGUUGACGAAAAGUCAACAAAAGAGAAGGAGCGCACGAAAGUGCAGGUAGGUCGCUCAUCCAGUGAUGUUGGAUCAUCCAGA [#SwitchBubble 16 #K4Late]”, the “apparent KD of K4 kissing-loop reporter” value is, setting by setting: (input ligand: FMN 200 uM) 345 nM; (input ligand: arginine 13.2 mM) 611 nM; (input ligand: none) 316 nM; under setting [1], 646 nM; under setting [2], 273 nM.
The corresponding values for “CUUAAGAUAUGAGUGAUGUUUAUGUCCGAAGGAGCGUGCGAAAGUACAGGUAGGUCGCGGAUGUGAGUGAUGUUCAUGUAAGCGA [KL-XArg-A13 #analogue]” are 132 nM, 87.9 nM, 114 nM, 109 nM and 106 nM.
“CUUCAGAUCUGAAGGAGCGCGUUACCAGAAUGCAUCAUAGAGCAGUGAUGUUGCUCUGGAUCGCAGGUAGGUCGCAGAUCUGACG [Arg B Ex t7b]”: the “apparent KD of K4 kissing-loop reporter” value runs as follows: (input ligand: FMN 200 uM) 196 nM; (input ligand: arginine 13.2 mM) 189 nM; (input ligand: none) 189 nM; under setting [1], 156 nM; under setting [2], 195 nM.
On to “CUUGAUGGAAACAUCGAGUAUUUCACUGAUACCAGUAUCGAUAGAUACCCUUGGCAGCAGGAUCAGUGUUUACGAGUGAUGUUCG [Ex Theophylline A K4 9]”, for which the “apparent KD of K4 kissing-loop reporter” value runs as follows: (input ligand: FMN 200 uM) 444 nM; (input ligand: arginine 13.2 mM) 408 nM; (input ligand: none) 451 nM; under setting [1], 380 nM; under setting [2], 376 nM.
For the sequence “CUUGGAAAGACGGCCGCCACUGGCCAGUGAUGUUGGCCCACCAGGUAAGCCAAGAAGCUUGACGUCAGGACCGGGUCCUAGGAAU [Exclusion TRyptophan B GF 23]”, the “apparent KD of K4 kissing-loop reporter” value was 363 nM (input ligand: FMN 200 uM); 449 nM (input ligand: arginine 13.2 mM); 410 nM (input ligand: none); 314 nM under setting [1]; 359 nM under setting [2].
On the same counts, the results for “CUUGGGCUUGCGGCCGCCACUCAAACAUCAUUAAGGAUGGUCCACGGGCAAGUGAUGUUUAUCCGGAGGACCGGGCAUAGCGACA [theeternabot_exclusion_KL_Trp_B_23]” are 337 nM, 270 nM, 315 nM, 315 nM and 342 nM.
The corresponding values for “GACUGGUUAACAGAUACCAGCCACAAGCGUUGAGGCGGCGGUAAAGUGAUGUUUUAUAAAGGCCCUUGGCAGCUGACUAGUUCGU [theeternabot_exclusion_KL_Theo_B_28]” are 371 nM, 387 nM, 383 nM, 381 nM and 324 nM.
As to “GAGAUAGAGGCGGCCGCCACUAGUGAUGUUAGUGAUGUUAGAAAGAGAAUAGAACAGGGAUUAGAUAGGACCGGGCCAGAUGGAG [vvhmullin]”, the “apparent KD of K4 kissing-loop reporter” value by setting is: (input ligand: FMN 200 uM) 64.4 nM; (input ligand: arginine 13.2 mM) 46 nM; (input ligand: none) 60.4 nM; under setting [1], 62.2 nM; under setting [2], 60.1 nM.
